Results reported in US20180074079A1.

Tests used:
[1] = target: rHDL bearing apoA-IW19:A136 (human) (UniProt P02647); test: FRET (Trp19 to AEDANS136) exchange assay, rHDL to lipid-free protein 1:5 molar, 37 C
[2] = target: rHDL bearing apoA-IW19:A136 (human) (UniProt P02647); test: FRET exchange assay, rHDL to lipid-free protein 1:5 molar, 37 C
[3] = target: rHDL bearing apoA-IW19:A136 (human) (UniProt P02647); test: FRET exchange assay, biphasic fit
[4] = target: HDL in human plasma (human); test: EPR, frozen and thawed plasma
[5] = target: HDL in human plasma (human); test: EPR, increasing probe concentration in patient plasma
[6] = target: HDL in human plasma (human); test: EPR, frozen and thawed plasma with higher TG concentration
[7] = target: HDL in human plasma (human); test: EPR, center peak amplitude over time, 0.3 mg/ml probe in plasma of patient D1
[8] = target: HDL in human plasma (human); test: EPR, center peak amplitude over time, 0.3 mg/ml probe in plasma of patient M1
[9] = target: HDL in human plasma (human); test: EPR, center peak amplitude over time, 0.3 mg/ml probe in plasma of patient N1
[10] = target: HDL in human plasma (human); test: EPR, frozen and thawed plasma with higher TG concentration, third freeze-thaw
[11] = target: 9.6 nm POPC rHDL generated with Alexa 350 labeled apoA-I (human) (UniProt P02647); test: displacement/exchange, rHDL apoA-I to lipid-free apoA-I 1:5 molar, 37 C, NDGGE fluorescence
Chain of 9.6 nm POPC rHDL generated with Alexa 350 labeled apoA-I (human) (P02647 25-267): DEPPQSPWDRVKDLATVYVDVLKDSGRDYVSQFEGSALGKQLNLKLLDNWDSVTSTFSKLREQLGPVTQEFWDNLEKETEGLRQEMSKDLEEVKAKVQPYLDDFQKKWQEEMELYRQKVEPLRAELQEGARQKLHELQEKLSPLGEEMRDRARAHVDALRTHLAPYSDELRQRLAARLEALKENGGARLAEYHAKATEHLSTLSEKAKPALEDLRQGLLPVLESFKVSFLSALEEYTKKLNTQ

Chain of rHDL bearing apoA-IW19:A136 (human) (P02647 other isoform, or with tags, fused parts or gaps): as the sequence (P02647 25-267) above, with W8F, V19W, W50F, W72F, W108F, E136C counted along it

With “Trp Null apoA-I (four endogenous tryptophans substituted for phenylalanine) (from UniProt P02647 25-267)” the exponential relaxation time (time to 50% maximal exchange, τ) [1] was 0.94 h.
Work on “Trp Null apoA-I oxidized by peroxynitrite (from UniProt P02647 25-267)” yielded an exponential relaxation time of exchange (t) [2] of 0.67 h.
“Trp Null apoA-I oxidized by the MPO-H2O2-nitrite system (from UniProt P02647 25-267)” gave an exchange impaired population [3] of 57.3%, an unaffected population [3] of 42.7% and an exponential relaxation time of exchange (t1) [2] of 0.92 h. The exponential relaxation time of exchange (t2) [2] was 18.8 h.
“apoA-ISL217 (apoA-I bearing a G217C mutation, cysteine derivatized with a thiosulfonate linked nitroxide spin label) (from UniProt P02647 25-267)” was tested, and the reduction of rate and degree of binding after a freeze-thaw cycle [4] was 10%, the reduction of rate and degree of binding after the third freeze-thaw [4] was 20% and the saturating concentration [5] was 1.9 mg/mL. It also gave a decrease in EPR observable binding after freeze-thaw, plasma with higher TG [6] of 15%, a time to maximal binding (patient D1) [7] of 10 min and a time to maximal binding (patient M1) [8] of 8 min. The time to binding (patient N1) [9] was less than 5 min and the decrease in EPR observable binding after freeze-thaw, plasma with higher TG [10] was 25%.
For “unlabeled lipid-free apoA-I (from UniProt P02647 25-267)”, the release of Alexa350 labeled apoA-I from rHDL into the lipid-free pool [11] was greater than 90%.
